Our source for the GloSensor assay: decrease of the forskolin-stimulated cAMP bioluminescence signal after a 2-s 365-nm light pulse, HEK cells only expressing Gαs and Gαi values is publication PMC11239505.

The target of this assay is Gαi (in HEK cells only expressing Gαs and Gαi, GloSensor assay).

The substance “parapinopsin from the Japanese lamprey Lethenteron camtschaticum (LcPPO) (receptor)” gave a GloSensor assay: decrease of the forskolin-stimulated cAMP bioluminescence signal after a 2-s 365-nm light pulse, HEK cells only expressing Gαs and Gαi of 63%. The substance “trafficking-enhanced eOPN3 derived from Anopheles stephensi (AsOPN3) (receptor)” returned a GloSensor assay: decrease of the forskolin-stimulated cAMP bioluminescence signal after a 2-s 365-nm light pulse, HEK cells only expressing Gαs and Gαi of 62%.
